# According to patent publication US20230212319A1, “NOVEL ANTIGEN BINDING DOMAINS AND SYNTHETIC ANTIGEN RECEPTORS INCORPORATING THE SAME” (University of Southern California, priority 2020, published 2023):
# B1: 22118 (protein)
# chain: MALPVTALLLPLALLLHAARPEVQLVESGGGLVQPGGSLRLSCTFSGGTFSSYTMGWFRQAPGKEREFVAEVRWGGVTTYSNSLKDRFSISEDSVKNAVYLQMNSLKPEDTAVYYCAAVRQMYMTVVPDYWGQGTLVTVSSSGGGGSDIQMTQSPSSLSASVGDRVTITCKASDHINNWLAWYQQKPGKAPKLLIYGATTLETGVPSRFSGSGSGTDFTLTISSLQPEDFATYYCQQSWNTPWTFGQGTKVEIKRLEDLKNVFPPEVAVFEPSEAEISHTQKATLVCLATGFYPDHVELSWWVNGKEVHSGVCTDPQPLKEQPALNDSRYCLSSRLRVSATFWQNPRNHFRCQVQFYGLSENDEWTQDRAKPVTQIVSAEAWGRADCGFTSESYQQGVLSATILYEILLGKATLYAVLVSALVLMAMVKRKDSRGRAKRSGSGATNFSLLKQAGDVEENPGPTSMDWIWRILFLVGAATGAHSFEVQLVESGGGLVQPGGSLRLSCAASGYAFSSYWVNWVRQAPGKGLEWVAQIYPGDGDTNYNGKFKGRFTISRDNSKNTLYLQMNSLRAEDTAVYYCARSITTVVGCAMDYWGQGTLVTVSSTRIQNPDPAVYQLRDSKSSDKSVCLFTDFDSQTNVSQSKDSDVYITDKCVLDMRSMDFKSNSAVAWSNKSDFACANAFNNSIIPEDTFFPSPESSCDVKLVEKSFETDTNLNFQNLSVIGFRILLLKVAGFNLLMTLRLWSSRAKRSGSGVKQTLNFDLLKLAGDVESNPGPSRGHMTEYKPTVRLATRDDVPRAVRTLAAAFADYPATRHTVDPDRHIERVTELQELFLTRVGLDIGKVWVADDGAAVAVWTTPESVEAGAVFAEIGPRMAELSGSRLAAQQQMEGLLAPHRPKEPAWFLATVGVSPDHQGKGLGSAVVLPGVEAAERAGVPAFLETSAPRNLPFYERLGFTVTADVEVPEGPRTWCMTRKPGA
# B2: 22005 (protein)
# chain: MALPVTALLLPLALLLHAARPLEGKPIPNPLLGLDSTGSGEDLKNVFPPEVAVFEPSKAEIAHTQKATLVCLATGFYPDHVELSWWVNGKEVHSGVCTDPQPLKEQPALNDSRYCLSSRLRVSATFWQNPRNHFRCQVQFYGLSENDEWTQDRAKPVTQIVSAEAWGRADCGITSASYHQGVLSATILYEILLGKATLYAVLVSALVLMAMVKRKDSRGRAKRSGSGATNFSLLKQAGDVEENPGPTSTMALPVTALLLPLALLLHAARPEVQLVESGGGLVQPGGSLRLSCAASGFNIKDTCIGWVRRAPGKEEELVAKICKYSGHTRYADSVKGRFTISADTSKNTAYLQMNSLRAEDTAVYYCAAVSVRDGHYNYWGQGTTVTVSSTREQKLISEEDGSGIQNPDPAVYQLRDSKSSDKSVCLFTDFDSQTNVSQSKDSDVYITDKCVLDMRSMDFKSNSAVAWSNKSDFACANAFNNSIIPEDTFFPSSDVPCDVKLVEKSFETDTNLNFQNLSVIGFRILLLKVAGFNLLMTLRLWSSRAKRSGSGVKQTLNFDLLKLAGDVESNPGPSRGHMTEYKPTVRLATRDDVPRAVRTLAAAFADYPATRHTVDPDRHIERVTELQELFLTRVGLDIGKVWVADDGAAVAVWTTPESVEAGAVFAEIGPRMAELSGSRLAAQQQMEGLLAPHRPKEPAWFLATVGVSPDHQGKGLGSAVVLPGVEAAERAGVPAFLETSAPRNLPFYERLGFTVTADVEVPEGPRTWCMTRKPGA
# Tests used:
# Assay type in all cases: cell-based
# RS;411 = test: JNG assay, co-culture with RS;411 cells; settings: co-culture with RS411
# Procedure, shortened: (§1)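 Jurkat NFAT-GFP (JNG) cells stably transduced with SARs by lentivirus, with drug selection where the construct carried a resistance gene, then co-cultured with target cells at E:T ~1:2 for ~4–18 h. % GFP-positive cells measured by FACS against parental JNG; +/- to 5+ correspond to ~5–50% GFP-positive.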
# RAJI-CD19-KO cells = test: JNG assay, co-culture with RAJI-CD19-KO cells; settings: co-culture with Raji-CD19-KO
# Procedure, shortened: as §1
# DAUDI = test: JNG assay, co-culture with DAUDI cells
# Procedure: Cellular supernatant is collected and assayed for the induction of cytokines (e.g., IL2).
# JNG (Jurkat cells expressing EGFP under an NFAT promoter) were infected with lentiviral vectors encoding different single chain and multi-chain SARs by spinfection in the presence of 8 µg/ml of Polybrene® (Sigma, Catalog no. H9268). The Jurkat-NFAT-GFP cells are engineered in such a way that the IL-2 promoter, which carries NFAT binding sites, is cloned upstream of the GFP gene. These cells have been used to study signaling via TCR and CAR. The different SARs were stably expressed in Jurkat NFAT-GFP cells by lentiviral mediated gene transfer, followed by selection with puromycin or blasticidin. No drug selection was used in case the construct lacked an antibiotic resistance gene. The SAR-expressing Jurkat-NFAT-GFP cells were cocultured with the target cells at E:T ratio of approximately 1:2 for approximately 4 hours to 18 hours. When the interaction between SIRs and their target antigen results in activation of the NFAT pathway, GFP expression is induced. […] GFP expression was monitored by FACS analysis. The Jurkat-NFAT-GFP (parental) cells were used as control. The structure of different constructs can be determined based on their names. […] The sequence of the other constructs in the table can be similarly determined from their names and by referring to the different Tables of this disclosure that provide the names and SEQ ID NO of the different modules. Alternatively, the composition and modular architecture of the different SAR constructs can be determined from their sequences by bioinformatics tools, including using nucleic acid and amino acids homology searches. A SAR is considered positive in the assay in case the SAR expressing Jurkat-NFAT-GFP cells show greater % GFP positive cells when cultured with the target cell line as compared to parental Jurkat-NFAT-GFP cells. […] In general, the number +/-, +, 2+, 3+, 4+, 5+ refer to approximately 5%, 10%, 20%, 30%, 40% and 50% GFP positive cells. […]
# Nalm6 cells = test: JNG assay, co-culture with Nalm6 cells; settings: co-culture with Nalm6
# Procedure, shortened: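 Read-out is % GFP-positive cells by flow cytometry after ~4–18 h co-culture (E:T ≈1:2) of target lines with SAR-transduced, puromycin/blasticidin-selected JNG cells. Grades +/-, +, 2+…5+ correspond to approximately 5%, 10%, 20%, 30%, 40%, 50% GFP+ over parental JNG controls.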
# RAJI cells = test: JNG assay, co-culture with RAJI cells; settings: JNG cells expressing construct, co-culture with Raji
# Procedure, shortened: as §1
# LoVo = test: JNG NFAT-GFP assay, co-culture with LoVo cells
Molecule,NFAT-GFP ASSAY: RS411 (RS;411),NFAT-GFP ASSAY: Raji-CD19-KO (RAJI-CD19-KO cells),NFAT-GFP ASSAY: Daudi (DAUDI),NFAT-GFP ASSAY: Nalm6 (Nalm6 cells),NFAT-GFP ASSAY: Raji (RAJI cells),NFAT-GFP ASSAY: LoVo (LoVo)
B1,"3+ (refer to approximately 5%, 10%, 20%, 30%, 40% and 50% GFP positive cells)","2+ (refer to approximately 5%, 10%, 20%, 30%, 40% and 50% GFP positive cells)","3+ (refer to approximately 5%, 10%, 20%, 30%, 40% and 50% GFP positive cells)","3+ (refer to approximately 5%, 10%, 20%, 30%, 40% and 50% GFP positive cells)","3+ (refer to approximately 5%, 10%, 20%, 30%, 40% and 50% GFP positive cells)",–
B2,–,–,–,–,–,"+/- (refer to approximately 5%, 10%, 20%, 30%, 40% and 50% GFP positive cells)"
